According to paper PMC9636275 (Nature Communications, 2022):
Where two headings read alike, the source gives them in different places.

What was measured:
CobB = biological target: T1, CobB (Escherichia coli, UniProt P75960); settings: 10 mM NAM, 37 °C, 2 h; result in words
T1 sequence (P75960 1-279): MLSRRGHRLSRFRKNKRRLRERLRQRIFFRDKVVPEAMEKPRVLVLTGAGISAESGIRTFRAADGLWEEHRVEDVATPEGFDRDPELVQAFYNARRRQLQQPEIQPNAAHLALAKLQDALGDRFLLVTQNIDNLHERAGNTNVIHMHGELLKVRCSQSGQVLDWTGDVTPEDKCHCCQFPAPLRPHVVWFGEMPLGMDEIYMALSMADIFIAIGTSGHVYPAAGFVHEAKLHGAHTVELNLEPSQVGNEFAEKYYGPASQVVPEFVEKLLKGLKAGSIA

YiaC [1] = experiment: ITC affinity of recombinant YiaC with acyl-CoA; type: binding, E. coli; settings: for Kd: cell 50 μM YiaC titrated with 500 μM acyl-CoA, 37 °C (method), three biological repetitions; for binding (Bin): result in words
Experimental: (§1) This method was described previously. […] The volume of the first injection was 0.5 μl of 500 μM actyl-CoA (or actylated peptides), and the following 18 injections were 2.0 μl. The binding isotherm was fit with the Origin 8.0 software (OriginLab). Each group had three biological repetitions.

YiaC [2] = biological target: T2, YiaC (Escherichia coli, UniProt P37664); experiment: Isothermal titration calorimetry (MicroCal PEAQ-ITC) with acyl-CoA (750 uM in syringe) titrated into YiaC (75 uM in cell) at 25.1 °C according to the data sheet; the methods text gives 500 uM, 50 uM and 37 °C.; type: binding; settings: n = 3
T2 construct: recombinant, pET28a vector, expressed in E. coli BL21 (λDE3), purified on HisPur Ni-NTA resin
T2 sequence (P37664 whole entry): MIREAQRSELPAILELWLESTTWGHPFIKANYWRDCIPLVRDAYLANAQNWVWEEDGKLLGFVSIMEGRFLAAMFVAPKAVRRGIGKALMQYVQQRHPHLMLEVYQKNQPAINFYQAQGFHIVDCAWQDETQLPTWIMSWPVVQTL
Experimental: as §1

whole-cell lysates = experiment: Whole-cell lysate reaction, lactate to La-CoA; design: species or system E. coli MG1655; settings: result in words
Experimental: This method was described previously. In detail, E. coli MG1655 was cultured in LB medium at 37 °C in shaken flasks overnight and harvested the cells by centrifugation, then added lysate buffer [[…], […] and 5 mM MgCl2, PH 7.0] and broke cells by ultrasound on ice, the supernatant was extracted by high-speed centrifugation as the whole protein lysate. Then measured protein concentration by BCA and adjusted the protein concentration to 2 mg/ml. […] Each reaction was performed three biological repetitions.
Samples dissolved in water were analyzed by an Orbitrap Exploris 480 (Thermo Scientific) mass spectrometer in positive ESI mode using the settings described previously[65],[66]. […] An Orbitrap Exploris 480 (Thermo Fisher Scientific) was employed for MS analysis. Spray voltage was set to 3.5 kV, funnel RF level at 40, and ion transfer tube temperature at 320 °C. Data were collected by Xcalibur (v.4.0.27.19). The orbitrap mass analyzer was used as the MS1 detector with 120,000 resolution. The normalized AGC target and maximum injection time were set at 70% /standard for MS1. The MS2 detector was used 15,000 resolution. Targeted mass setting is lactyl-CoA: 840.1436, acetyl-CoA: 810.1330 and propionate CoA: 824.1487. […] The relative intensity of acyl-CoA was analyzed by Xcalibur (v.4.0.27.19).

E. coli MG1655 = experiment: Growth curve; type: cell-based; settings: 37 °C, result in words
Experimental: As previous described, the strains were cultured in LB medium overnight, then diluted 1:1000 in LB or M9 medium (with 1% glucose or 1% pyruvate) and incubated at 37 °C with 96-well plates, and each strain was added to three wells. The absorbance at 600 nm at initiation was set as a blank and measured every hour using a spectrophotometer. All the growth dynamic curves were drawn using Origin 8.0.

PykF [3] = settings: in vitro; result in words
PykF [4] = settings: for Relative activity of PykF: intracellular; for intracellular PykF activity: result in words
PncB = experiment: In vitro assay for PncB activity; type: biochemical, E. coli; settings: for enzymatic activity vs wild type: in vitro, result in words
Experimental: The activity of purified PncB, PncB^K381Q, and PncB^K381R were measured as described. In detail, the purified proteins were added in the reaction buffer [50 mM Tris-HCl, 10 mM MgCl2, 2.5 mM dithiothreitol, 1 mM ATP, […] of bovine serum albumin, 1 mM nicotinic acid and 1 mM 5-phosphoribosyl-1-pyrophosphate (pH 7.5)] at 37 °C for 2 h. The reactions were measured by HPLC-MS/MS to detect the production of […]. Separation was performed on a Vanquish UHPLC system (Thermo Fisher Scientific) with an ACQUITY UPLC BEH C18 column (100 × 2.1 mm, 1.7 μm). Mobile phase A was 0.1% formic acid in water. Mobile phase B was 0.1% formic acid in methanol. […] Injection volume was 2 μl. Nicotinic acid detection was performed on an Orbitrap Exploris 480 spectrometer (Thermo Fisher Scientific, Bremen, Germany) operated with ESI probe. Data were acquired under the following parameters: sheath gas ((N2), 35 Arb; aux gas (N2), 10 Arb; spray voltage, 3500 V (positive mode); and in transfer tube temperature, 320 °C. An SIM was applied for data acquisition.

[5] = Fig. 6e, LB medium 37 °C, replicate 1
[6] = Fig. 6e, LB medium 37 °C, replicate 2
[7] = Fig. 6e, LB medium 37 °C, replicate 3
[8] = Fig. 6g, M9 with 1% glucose, replicate 2
[9] = Fig. 6g, M9 with 1% glucose, replicate 3
[10] = replicate 1, 37 °C, 2 h, HPLC-MS/MS

NC(=O)c1cccnc1 [NAM, nicotinamide, reference compound]
inhibition of CobB delactylation (CobB): the delactylation reaction could be inhibited by nicotinamide (NAM)
inhibition, deacetylation compared with delactylation (CobB): more effective for deacetylation than delactylation

CC(=O)SCCNC(=O)CCNC(=O)[C@H](O)C(C)(C)COP(=O)(O)OP(=O)(O)OC[C@H]1O[C@@H](n2cnc3c(N)ncnc32)[C@H](O)[C@@H]1OP(=O)(O)O [acetyl-CoA, Acetyl coenzyme A, reference compound]
Kd (YiaC [1]): 5.57 µM
binding (Bin) (YiaC [1]): Binding

CC(=O)SCCNC(=O)CCNC(=O)[C@H](O)C(C)(C)COP(=O)(O)OP(=O)(O)OC[C@H]1O[C@@H](n2cnc3c(N)ncnc32)[C@H](O)[C@@H]1OP(=O)(O)O [acetyl-CoA, acetyl coenzyme A]
Kd (YiaC [2]): 5.57 µM

CC(O)C(=O)O (centres unmarked) [lactate, reference compound]
conversion to lactyl-CoA / lactyl-CoA level (whole-cell lysates): could be effectively converted to lactyl-CoA

CC(O)C(=O)SCCNC(=O)CCNC(=O)[C@H](O)C(C)(C)COP(=O)(O)OP(=O)(O)OC[C@H]1O[C@@H](n2cnc3c(N)ncnc32)[C@H](O)[C@@H]1OP(=O)(O)O (some centres unmarked) [lactyl-CoA, lactyl-coenzyme A]
conversion to lactyl-CoA / lactyl-CoA level (whole-cell lysates): low level
Kd (YiaC [2]): 6.83 µM
Kd (YiaC [1]): 6.83 µM
binding (Bin) (YiaC [1]): strong binding
binding (Bin) (YiaC [1]; listed as laCoA): Binding

PykF^K382Q
growth (E. coli MG1655; LB medium): grew the slowest
growth (E. coli MG1655; M9 with 1% glucose): grew slowest
enzymatic activity vs wild type (PykF [3]): significantly decreased
Relative activity of PykF (PykF [4]; [5]): 0.52
Relative activity of PykF (PykF [4]; [6]): 0.47
Relative activity of PykF (PykF [4]; [7]): 0.58
Relative activity of PykF (PykF [4]; [8]): 0.4941
Relative activity of PykF (PykF [4]; [9]): 0.4204
intracellular PykF activity (PykF [4]; LB medium): lowest activity
intracellular PykF activity (PykF [4]; M9 with 1% glucose): lowest PykF activity

PykF^K382R: PykF mutant, unmodified K mimic; pPykF^K382R = overexpressing strain
growth (E. coli MG1655; LB medium): fastest growth
growth (E. coli MG1655; M9 with 1% glucose): grew fastest
enzymatic activity vs wild type (PykF [3]): increased
Relative activity of PykF (PykF [4]; [5]): 1.38
Relative activity of PykF (PykF [4]; [6]): 1.06
Relative activity of PykF (PykF [4]; [7]): 1.54
Relative activity of PykF (PykF [4]; Fig. 6g, M9 with 1% glucose, replicate 1): 1.27
Relative activity of PykF (PykF [4]; [8]): 1.36
Relative activity of PykF (PykF [4]; [9]): 1.3593
intracellular PykF activity (PykF [4]; LB medium): highest activity
intracellular PykF activity (PykF [4]; M9 with 1% glucose): highest PykF activity

Succinyl coenzyme A [succinyl-CoA, reference compound]
binding (Bin) (YiaC [1]): no binding

B1: PncB^K381Q (protein, UniProt P18133 2-400, looked up, variant K381Q)
Nicotinate …: TQFASPVLHSLLDTDAYKLHMQQAVFHHYYDVHVAAEFRCRGDDLLGIYADAIREQVQAMQHLRLQDDEYQWLSALPFFKADYLNWLREFRFNPEQVTVSNDNGKLDIRLSGPWREVILWEVPLLAVISEMVHRYRSPQADVAQALDTLESKLVDFSALTAGLDMSRFHLMDFGTRRRFSREVQETIVKRLQQESWFVGTSNYDLARRLSLTPMGTQAHEWFQAHQQISPDLANSQRAALAAWLEEYPDQLGIALTDCITMDAFLRDFGVEFASRYQGLRHDSGDPVEWGEKAIAHYEKLGIDPQSKTLVFSDNLDLRKAVELYRHFSSRVQLSFGIGTRLTCDIPQVKPLNIVIKLVECNGKPVAKLSDSPGKTICHDQAFVRALRKAFDLPHIKKAS
enzymatic activity vs wild type (PncB): significantly decreased
Residual percentage of reaction (PncB; replicate 1, relative to C): 0.3998
Determination of nicotinic acid (PncB; [10]): 117663852
Determination of nicotinic acid (PncB; replicate 2): 149776081
Residual percentage of reaction (PncB; replicate 2, relative to C): 0.4956
Determination of nicotinic acid (PncB; replicate 3): 106239984
Residual percentage of reaction (PncB; replicate 3, relative to C): 0.3796

B2: PncB: nicotinate phosphoribosyltransferase, wild type (protein, UniProt P18133 2-400, looked up)
Nicotinate …: TQFASPVLHSLLDTDAYKLHMQQAVFHHYYDVHVAAEFRCRGDDLLGIYADAIREQVQAMQHLRLQDDEYQWLSALPFFKADYLNWLREFRFNPEQVTVSNDNGKLDIRLSGPWREVILWEVPLLAVISEMVHRYRSPQADVAQALDTLESKLVDFSALTAGLDMSRFHLMDFGTRRRFSREVQETIVKRLQQESWFVGTSNYDLARRLSLTPMGTQAHEWFQAHQQISPDLANSQRAALAAWLEEYPDQLGIALTDCITMDAFLRDFGVEFASRYQGLRHDSGDPVEWGEKAIAHYEKLGIDPQSKTLVFSDNLDLRKAVELYRHFSSRVQLSFGIGTRLTCDIPQVKPLNIVIKLVECNGKPVAKLSDSPGKTICHDKAFVRALRKAFDLPHIKKAS
Residual percentage of reaction (PncB; replicate 1, relative to C): 0.08118
Determination of nicotinic acid (PncB; [10]): 23891965
Determination of nicotinic acid (PncB; replicate 2): 25485329
Residual percentage of reaction (PncB; replicate 2, relative to C): 0.08433
Determination of nicotinic acid (PncB; replicate 3): 18539215
Residual percentage of reaction (PncB; replicate 3, relative to C): 0.06624

B3: PncB^K381R (protein, UniProt P18133 2-400, looked up, variant K381R)
Nicotinate …: TQFASPVLHSLLDTDAYKLHMQQAVFHHYYDVHVAAEFRCRGDDLLGIYADAIREQVQAMQHLRLQDDEYQWLSALPFFKADYLNWLREFRFNPEQVTVSNDNGKLDIRLSGPWREVILWEVPLLAVISEMVHRYRSPQADVAQALDTLESKLVDFSALTAGLDMSRFHLMDFGTRRRFSREVQETIVKRLQQESWFVGTSNYDLARRLSLTPMGTQAHEWFQAHQQISPDLANSQRAALAAWLEEYPDQLGIALTDCITMDAFLRDFGVEFASRYQGLRHDSGDPVEWGEKAIAHYEKLGIDPQSKTLVFSDNLDLRKAVELYRHFSSRVQLSFGIGTRLTCDIPQVKPLNIVIKLVECNGKPVAKLSDSPGKTICHDRAFVRALRKAFDLPHIKKAS
enzymatic activity vs wild type (PncB): increased
Residual percentage of reaction (PncB; replicate 1, relative to C): 0.01962
Determination of nicotinic acid (PncB; [10]): 5775041
Determination of nicotinic acid (PncB; replicate 2): 6028387
Residual percentage of reaction (PncB; replicate 2, relative to C): 0.01995
Determination of nicotinic acid (PncB; replicate 3): 5793798
Residual percentage of reaction (PncB; replicate 3, relative to C): 0.0207
